The text below walks through data of patent US20040072240A1.

B1: HER-2/neu 851 (peptide)
peptide: VLVKSPNHV
modifications: not checked
B2: mp 545 (peptide)
peptide: QLLRSFFHFL
modifications: not checked
B3: mhp 572Y1 (peptide)
peptide: YLFFYRKSV
modifications: not checked
B4: gp100 476 (peptide)
peptide: VLYRYGSFSV
modifications: not checked
B5: HER-2/neu 391 (peptide)
peptide: PLQPEQLQV
modifications: not checked
B6: mart-1 32 (peptide)
peptide: ILTVILGVL
modifications: not checked
B7: mp 876 (peptide)
peptide: FLSTLVHGV
modifications: not checked
B8: HER-2/neu 391Y1 (peptide)
peptide: YLQPEQLQV
modifications: not checked
B9: HER-2/neu 971 (peptide)
peptide: ELVSEFSRM
modifications: not checked
B10: HER-2/neu 466Y1 (peptide)
peptide: YLIHHNTHL
modifications: not checked
B11: HBVpol 765 (peptide)
peptide: LLGCAANWIL
modifications: not checked
B12: HER-2/neu 48 (peptide)
peptide: HLYQGCQVV
modifications: not checked
B13: HER-2/neu 650 (peptide)
peptide: PLTSIISAV
modifications: not checked
B14: HER-2/neu 402Y1 (peptide)
peptide: YLEEITGYL
modifications: not checked
B15: mhp 572 (peptide)
peptide: RLFFYRKSV
modifications: not checked
B16: mp 797 (peptide)
peptide: SLFDFFHFL
modifications: not checked
B17: mp 534 (peptide)
peptide: FLFWLMDTYV
modifications: not checked
B18: HER-2/neu 1023 (peptide)
peptide: YLVPQQGFFC
modifications: not checked
B19: Tyrosinase 224 (peptide)
peptide: KLTGDENFTI
modifications: not checked
B20: mhp 988 (peptide)
peptide: DLQVNSLQTV
modifications: not checked
B21: mhp 540 (peptide)
peptide: ILAKFLHWL
modifications: not checked
B22: Tyrosinase 207 (peptide)
peptide: FLPWHRLFLL
modifications: not checked
B23: mp 530 (peptide)
peptide: ILATFLAWL
modifications: not checked
B24: gp100 177 (peptide)
peptide: AMLGTHTMEV
modifications: not checked
B25: HER-2/neu 402 (peptide)
peptide: TLEEITGYL
modifications: not checked
B26: mhp 988Y1 (peptide)
peptide: YLQVNSLQTV
modifications: not checked
B27: HER-2/neu 773 (peptide)
peptide: VMAGVGSPYV
modifications: not checked
B28: HBVpol 594 (peptide)
peptide: PLEEELPRL
modifications: not checked
B29: pol79 (peptide)
peptide: LLDTGADDTV
modifications: not checked
B30: K9L (peptide)
peptide: KLTPLCVSL
modifications: not checked
B31: HER-2/neu 5 (peptide)
peptide: ALCRWGLLL
modifications: not checked
B32: HER-2/neu 466 (peptide)
peptide: ALIHHNTHL
modifications: not checked

In the first test the target is HLA A2.1 molecule (human). Briefly: T2 cells, flow cytometry (BB7.2); reference HIVpol 589.
Details: not given
B1: the RA (relative affinity) came to 24.

B2 showed an RA (relative affinity) of 1.8.

For B3, the RA (relative affinity) came out at 2.2.

B4 had an RA (relative affinity) of 10.

B5 had an RA (relative affinity) of over 70.

In turn, B6 had an RA (relative affinity) of 21.1.

In turn, B7 displayed an RA (relative affinity) of 1.2.

In turn, B8 had an RA (relative affinity) of 1.3.

Take B9: the RA (relative affinity) is over 70.

B10 returned an RA (relative affinity) of 1.4.

B11 gave an RA (relative affinity) of 2.

Molecule B12 yielded an RA (relative affinity) of 1.7.

For the molecule B13, the RA (relative affinity) worked out at 1.4.

Molecule B14 came in with an RA (relative affinity) of 3.7.

Consider B15, for which the RA (relative affinity) came out at 25.3.

B16 had an RA (relative affinity) of 1.5.

With B17, the RA (relative affinity) is 0.2.

B18: the RA (relative affinity) stood at 19.6.

The molecule B19 had an RA (relative affinity) of over 50.

Regarding B20, the RA (relative affinity) worked out at 28.6.

On to B21, for which the RA (relative affinity) was 0.3.

B22: the RA (relative affinity) is over 50.

Molecule B23 gave an RA (relative affinity) of 0.8.

In turn, B24 gave an RA (relative affinity) of 0.5.

Take B25: the RA (relative affinity) is 19.

B26: the RA (relative affinity) amounted to 2.1.

B27: the RA (relative affinity) came out at 1.7.

Still in this test, the particulars now being: remark: other sources report otherwise.
Take B28: the RA (relative affinity) was 4.2.

The target of a further test is HLA A2.1 molecule (human). The test can be described thus: T2 cells, flow cytometry (BB7.2); reference I9V.
Details: not given
B29 showed an RA (relative affinity) of 10.

For the molecule B30, the RA (relative affinity) is 1.35.

The target of another test is HLA A2.1 molecule (human). Briefly: T2 cells, flow cytometry (BB7.2); complex dissociation.
Details: not given
In general terms: Flow cytometry measures light scatter and fluorescence of single cells or particles in a stream.
B1 returned a DC50 of 4 h.

Molecule B2 gave a DC50 of over 6 h.

B3 yielded a DC50 of 5 h.

B4 came in with a DC50 of 6 h.

Take B5: the DC50 came out at 2 h.

As for B6, the DC50 was 4 h.

The molecule B7 registered a DC50 of over 6 h.

In the case of B8, the DC50 amounted to 8 h.

Turning to B9, the DC50 was 2 h.

With B10, the DC50 was determined as 6 h.

With B11, the DC50 is 4 h.

With B12, the DC50 was over 8 h.

B29 showed a DC50 of under 2 h.

B13 returned a DC50 of under 2 h.

As to B14, the DC50 is 4 h.

In turn, B31 registered a DC50 of over 8 h.

With B15, the DC50 was under 2 h.

Molecule B30 gave a DC50 of over 6 h.

B16 showed a DC50 of over 6 h.

As for B17, the DC50 was over 6 h.

Turning to B18, the DC50 is 4 h.

Turning to B19, the DC50 was under 2 h.

Regarding B20, the DC50 is under 2 h.

Regarding B21, the DC50 was over 6 h.

As to B22, the DC50 was 2 h.

As for B23, the DC50 was over 6 h.

As to B32, the DC50 was 2 h.

For the molecule B24, the DC50 was over 6 h.

B25 showed a DC50 of under 2 h.

In the case of B26, the DC50 is over 6 h.

B27 gave a DC50 of 6 h.

Staying with this test, now noted: remark: other sources report otherwise.
Take B28: the DC50 was under 2 h.

The target in a further test is HLA A2.1 molecule (human). The test can be described thus: T2 cells, flow cytometry; P1Y variant against its natural peptide.
Details: not given
Turning to B8, the DC50 Y1-DC50 WT was over 6 h and the RA WT/RA Y1 was determined as 55.5.

Take B10: the DC50 Y1-DC50 WT is over 4 h and the RA WT/RA Y1 was 3.3.

For B14, the DC50 Y1-DC50 WT is over 2 h and the RA WT/RA Y1 amounted to 5.2.
